{"source": "paper PMC9318220", "target": "conSOSL.UFO.664 trimer with a C-terminal 8x His-tag (SUFO.664-His) (HIV-1 (consensus S))", "assay": "SEC + native gel or EMSA; SEC on HiPrep 26/60 Sephacryl S-300 HR after lectin affinity; eluted fractions analysed by Native-PAGE with silver stain and Western blot", "data": [{"substance": "conSOSL.UFO.664 trimer with a C-terminal 8x His-tag (SUFO.664-His)", "values": [{"measurement": "stoichiometry N", "value": 3}]}]}
